# Reference: the supplement of paper PMC12855868
# B1: library; numbered along this chain (parent)
# chain: MAAAGGARLLRAASAVLGGPAGRWLHHAGSRAGSSGLLRNRGPGGSAEASRSLSVSARARSSSEDKITVHFINRDGETLTTKGKVGDSLLDVVVENNLDIDGFGACEGTLACSTCHLIFEDHIYEKLDAITDEENDMLDLAYGLTDRSRLGCQICLTKSMDNMTVRVPETVADARQSIDVGKTS
# Variants of: B1
# Assay: scaled log2 fold change in cell abundance, elesclomol vs control (0 = silent mean, 1 = nonsense mean) (scaled log2 ratio); higher = higher viability under elesclomol (loss of FDX1 cuproptosis function)
# Conditions: glucose 10 mM
# Procedure: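 Deep mutational scan of full-length human FDX1: a pooled saturation-mutagenesis ORF library (every residue 2-184 mutated to all 19 amino acids plus stop, and silent codons where available) was expressed by lentivirus in FDX1-knockout ABC1 (14 days) or HEK293T (11 days) cells grown with elesclomol (ES) or DMSO control. Variant abundance came from ORF sequencing. The log2 fold change (ES vs control, mean of duplicates) was centred on the silent-variant mean (0) and scaled to the nonsense-variant mean (1). Higher values mean greater viability under ES, i.e. loss of FDX1 function in cuproptosis.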
# [1] = with ABC1 FDX1 KO, elesclomol 5 nM, 14 days
# [2] = with HEK293T FDX1 KO, elesclomol 40 nM, 11 days
# 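Further: variant abundance is its share of total variant reads in each endpoint sample, from next-generation sequencing of the integrated ORF PCR-amplified out of genomic DNA.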
Variant,scaled log2 fold change [1],scaled log2 fold change [2]
MAAAGGARLLRAASAVLGGPAGRWLHHAGSRAGSSGLLRNRGPGGRAEASRSLSVSARARSSSEDKITVHFINRDGETLTTKGKVGDSLLDVVVENNLDIDGFGACEGTLACSTCHLIFEDHIYEKLDAITDEENDMLDLAYGLTDRSRLGCQICLTKSMDNMTVRVPETVADARQSIDVGKTS,0.93,0.639
MAAAGGARLLRAASAVLGGPAGRWLHHAGSRAGSSGLLRNRGPGGSAEASRSLSVSARARSSSEDKITVHFINRDGETLTTKGKVGDSLLDVVVENNLDIDGFGACEGTLACSTCHLIFEDHIYEKLDAITDEENDMLDLAYGLTDRSRLGCQICPTKSMDNMTVRVPETVADARQSIDVGKTS,0.268,0.446
MAAAGGARLLRAASAVLGGPAGRWLHHAGSRAGSSGLYRNRGPGGSAEASRSLSVSARARSSSEDKITVHFINRDGETLTTKGKVGDSLLDVVVENNLDIDGFGACEGTLACSTCHLIFEDHIYEKLDAITDEENDMLDLAYGLTDRSRLGCQICLTKSMDNMTVRVPETVADARQSIDVGKTS,-0.0523,-0.184
MAAAGGARLLRAASAVLGGPAGRWLHHAGSRAGSSGLLRNRGPGGSAEASRSLSVSARARSSSEDKITVHFINRDGETLTTKGKVGDSLLDVVVENNLDIDGFGACEGTLACSTCHLIFEDHIYEKLDALTDEENDMLDLAYGLTDRSRLGCQICLTKSMDNMTVRVPETVADARQSIDVGKTS,-0.083,-0.116
MAAAGGARLLRAASAVLGGPAGRWLHHAGSRAGSSGLLRNRGPGGSAEASRSLSVSARARSSSEDKITVHFINRDGETLTTKRKVGDSLLDVVVENNLDIDGFGACEGTLACSTCHLIFEDHIYEKLDAITDEENDMLDLAYGLTDRSRLGCQICLTKSMDNMTVRVPETVADARQSIDVGKTS,0.756,0.39
MAAAGGARLLRAASAVLGGPAGRWLHHAGSRAGSSLLLRNRGPGGSAEASRSLSVSARARSSSEDKITVHFINRDGETLTTKGKVGDSLLDVVVENNLDIDGFGACEGTLACSTCHLIFEDHIYEKLDAITDEENDMLDLAYGLTDRSRLGCQICLTKSMDNMTVRVPETVADARQSIDVGKTS,0.19,0.873
MAAAGGARLLRAASAVLGGPAGRWLHHAGSRAGSSGLLRNRGPGGSAEASRSLSVSARARSSSEDKITVHFIMRDGETLTTKGKVGDSLLDVVVENNLDIDGFGACEGTLACSTCHLIFEDHIYEKLDAITDEENDMLDLAYGLTDRSRLGCQICLTKSMDNMTVRVPETVADARQSIDVGKTS,-0.526,0.0726
MAAAGGARLLRAASAVLGGPAGRWLHHAGSRAGSSGLLRNRGPGGSAEASRSLSVSARARSSSEDKITVHFINRDGETLTTKGKVGDSLLDVVVENNLDIDGFGACEGTLACSTCHLIFEDHIYEKLDAITDEENDMLDLAYGLTDRSRLGCQICLTKSMDNMTVRVPETVADARQSIDVGCTS,-0.0381,-0.334
